From patent publication US8821862B2, “Soluble β-N-acetylglucosaminidase based antibiofilm compositions and uses thereof” (Kane Biotech Inc., priority 2002, dated 2014)

What was measured:
[1] = system: S. epidermidis; assay: In vitro microplate growth and biofilm formation assay (crystal violet); type: cell-based, Staphylococcus epidermidis; conditions: DispersinB at different concentrations, TSB, 37° C., 24 hours
Method: An overnight culture of S. epidermidis in Tryptic Soy Broth (TSB) was used as inoculum. Bacteria were grown in TSB on a 96-well microtiterplate in the absence and presence of each compound (DispersinB™ or TCSN) at different concentrations separately and together (DispersinB™+TCSN). Concentrations of DispersinB™ included 25 ng/ml, 50 ng/ml, and 100 ng/ml. Concentrations of TCSN included 25 μg/ml, 50 μg/ml, and 100 μg/ml. The plate was incubated at 37° C. for 24 hours. The growth and biofilm was measured as explained in Example 1.
The experiment was performed as explained in Example 1.
An in vitro microtiter assay was performed to determine the effect of DispersinB™ wound gel on the growth and biofilm formation of Staphylococcus epidermidis. S. epidermidis biofilm was grown in tryptic soy broth (TSB). S. epidermidis was grown in 96-well microtiter plate in the absence and presence of DispersinB™ wound gel at different concentrations. The plate was incubated at 37° C. for 24 hours.
In vitro microplate assay was performed to determine the synergistic effect of DispersinB™ and triclosan (an antimicrobial agent) on the growth and biofilm formation of S. epidermidis. Overnight culture of S. epidermidis in Tryptic Soy Broth (TSB) was used as inoculum. […]

[2] = system: S. epidermidis biofilm; assay: Dispersal of S. epidermidis biofilm aggregates in a tube; type: cell-based; conditions: scraped biofilm cell aggregates in tube treated with DispersinB
Source text: The biofilm growth from the surface was scraped from the bottom of the tube and transferred to another tube (FIG. 2). Under these condition cells formed a sticky aggregate that rapidly settle to the bottom of the tube.

[3] = system: E. coli csrA luxCDABE kan^r biofilm; assay: Bioluminescent E. coli biofilm on filter disc, luminescence; type: cell-based; conditions: for luminescence, Day 1 / luminescence, Day 2 / luminescence, Day 3 / luminescence, Day 4: DispersinB 50 μg/ml
Source text: E. coli TRMG1655 [csrA::kan^r] strain was transformed with transposon, mini-TN5 luxCDABE::kan^r for luciferase expression (Kadurugamuwa et al., 2005, Infect. Immun. 73: 3878-3887), and the operon integrated into the chromosome. Integration was confirmed by amplification of the genomic DNA upstream of the transposon by inverse PCR using Ssp1-digested genomic DNA. Primers UTCF1 (5′-[…]-3′; SEQ ID NO:13) and UTCR (5′-[…]-3′; SEQ ID NO:14) were used to amplify the upstream region using Pfu DNA polymerase (Sigma-Oligosynthesis, St. Louis, Mo.). The lux operon is derived from Photorhabdus luminescence and was obtained from Xenogen Inc. (Alameda, Calif.). These bioluminescent bacteria allow real-time monitoring by noninvasive imaging of biofilms, either in vitro or in vivo.
A cell suspension of 10^6 E. coli csrA luxCDABE kan^r was used to inoculate a filter disc (Millipore Corporation, Billerica, Mass.). The E. coli biofilm was maintained in minimal media (M9) supplemented with 50 μg/ml kanamycin and 100 μg/ml ampicillin. The media were changed every day by transferring the disc to new plate. After 3 days, chemoluminescence activity of the established biofilm was measured using a Typhoon™ imaging scanner (General Electric Healthcare Life Sciences) and ImageQuant TL software (Amersham Biosciences, Sunnyvale, Calif.). The measure luminescence directly correlates with the metabolic activity of the biofilm.
Luminescence was measured at day 0 and was used as the control. Following the measurement of luminescence at day 0, each disc was treated with one of the following—media alone (control) and media containing:
Luminescence was measured every 24 hours followed by replacing the media. Thus, every 24 h following the measurement of the luminescence, 10 μl each of the different solutions was applied to the plate and the biofilm disc was placed on top of the drop everyday. The quantitative analysis of the biofilm luminescence from each day was used to compare the biofilm activity after treatment with the different treatments.
The experiments were repeated using the same E. coli strain csrA luxCDABE kan^r and protocols. Biofilm discs were pulsed with media alone (control) and media containing: […]

[4] = system: A. actinomycetemcomitans CU1000 biofilms; assay: Biofilm killing assay; type: cell-based; conditions: DispersinB alone, 20 μg/mL
Method: Biofilm Killing Assay. […] Tubes were vortexed for 10 s, and 20 μL aliquots of the detached biofilms were transferred to the wells of a flat-bottomed 96-well microtiter plate containing 180 μL of fresh broth. Five serial dilutions (20 μL into 180 μL) were performed directly into adjacent wells. Plates were incubated for 48 h and then rinsed and stained with crystal violet as described above. Wells containing 30-300 biofilm colonies were photographed under a dissecting microscope and counted. In some assays, biofilms were pre-treated with 1 mL of DispersinB™ (20 μg/mL in PBS) for 5 min prior to the SDS treatment. In these assays, a 100 μL quantity of SDS in PBS (at 10 times the test concentration) was added directly to the DispersinB™-treated cell suspension and mixed. After 5 min, tubes were vortexed briefly, and 20-μL aliquots of culture were enumerated as described above. Killing assays were performed in duplicate tubes on at least 5 separate occasions, with similar results.

[5] = DispersinB enzyme activity; type: biochemical; conditions: recombinant protein purified from an overexpressing strain of E. coli
Method: Reagents. Recombinant dispersinB protein was purified from an overexpressing strain of E. coli as previously described (Kaplan et al., J. Bacteriol. 2003, 185: 4693-4698). […] Sodium dodecyl sulfate (SDS) was purchased from Fluka (St. Gallen, Switzerland). Phosphate-buffered saline (PBS; 138 mM NaCl, 10 mM phosphate, 2.7 mM KCl, pH 7.4) was purchased from Sigma Chemical Company (St. Louis, Mo., USA).

[6] = Table 3, phage 10^8, treatment renewed every 24 h
[7] = Table 4, repeated experiment, BisEDT 50 μg/ml, phage cocktail 10^8

B1: DispersinB™: 381 amino acid soluble β-N-acetylglucosaminidase encoded by dspB of A. actinomycetemcomitans; mature polypeptide SEQ ID NO:11 (protein)
chain: NCCVKGNSIYPQKTSTKQTGLMLDIARHFYSPEVIKSFIDTISLSGGNFLHLHFSDHENYAIESHLLNQRAENAVQGKDGIYINPYTGKPFLSYRQLDDIKAYAKAKGIELIPELDSPNHMTAIFKLVQKDRGVKYLQGLKSRQVDDEIDITNADSITFMQSLMSEVIDIFGDTSQHFHIGGDEFGYSVESNHEFITYANKLSYFLEKKGLKTRMWNDGLIKNTFEQINPNIEITYWSYDGDTQDKNEAAERRDMRVSLPELLAKGFTVLNYNSYYLYIVPKASPTFSQDAAFAAKDVIKNWDLGVWDGRNTKNRVQNTHEIAGAALSIWGEDAKALKDETIQKNTKSLLEAVIHKTNGDE
modifications: Actinobacillus actinomycetemcomitans
[1]
  biofilm formation: appreciable effect
[2]
  dispersal of S. epidermidis biofilm: detaches the biofilm
[3]; Table 3, Day 0, measured before treatment (baseline)
  luminescence, Day 0: 948.72 RLU
[3]; [6]
  luminescence, Day 1: 1167.19 RLU
  luminescence, Day 2: 1297.42 RLU
  luminescence, Day 3: 1487.76 RLU
  luminescence, Day 4: 1550.01 RLU
[3]; [7]
  luminescence, Day 1: 2137.73 RLU
  luminescence, Day 2: 1911.9 RLU
  luminescence, Day 3: 2982.02 RLU
  luminescence, Day 4: 2032.06 RLU
[3]; Table 4, repeated experiment, Day 0, before treatment (baseline)
  luminescence, Day 0: 1815.26 RLU
[3]; over 4 days, result in words
  course of biofilm luminescence (RLU) / metabolic activity over time: growth similar to the control
[4]; 5 min or 30 min
  killing of A. actinomycetemcomitans biofilms: did not significantly kill
[4]; 30 min, versus mock-treated controls
  reduction in the number of CFU/tube: little or no reduction
[5]
  specific activity: ~10^3 units per mg of protein
